From PMC3438448

Tests used:
[1] = biological target: GST-dynein_(331 kDa) (S. cerevisiae) (UniProt P36022)
[2] = biological target: GST-dynein_(331 kDa) (S. cerevisiae) (UniProt P36022); remark: listed apart in the source

Sequence of GST-dynein_(331 kDa) (S. cerevisiae) (P36022 whole entry): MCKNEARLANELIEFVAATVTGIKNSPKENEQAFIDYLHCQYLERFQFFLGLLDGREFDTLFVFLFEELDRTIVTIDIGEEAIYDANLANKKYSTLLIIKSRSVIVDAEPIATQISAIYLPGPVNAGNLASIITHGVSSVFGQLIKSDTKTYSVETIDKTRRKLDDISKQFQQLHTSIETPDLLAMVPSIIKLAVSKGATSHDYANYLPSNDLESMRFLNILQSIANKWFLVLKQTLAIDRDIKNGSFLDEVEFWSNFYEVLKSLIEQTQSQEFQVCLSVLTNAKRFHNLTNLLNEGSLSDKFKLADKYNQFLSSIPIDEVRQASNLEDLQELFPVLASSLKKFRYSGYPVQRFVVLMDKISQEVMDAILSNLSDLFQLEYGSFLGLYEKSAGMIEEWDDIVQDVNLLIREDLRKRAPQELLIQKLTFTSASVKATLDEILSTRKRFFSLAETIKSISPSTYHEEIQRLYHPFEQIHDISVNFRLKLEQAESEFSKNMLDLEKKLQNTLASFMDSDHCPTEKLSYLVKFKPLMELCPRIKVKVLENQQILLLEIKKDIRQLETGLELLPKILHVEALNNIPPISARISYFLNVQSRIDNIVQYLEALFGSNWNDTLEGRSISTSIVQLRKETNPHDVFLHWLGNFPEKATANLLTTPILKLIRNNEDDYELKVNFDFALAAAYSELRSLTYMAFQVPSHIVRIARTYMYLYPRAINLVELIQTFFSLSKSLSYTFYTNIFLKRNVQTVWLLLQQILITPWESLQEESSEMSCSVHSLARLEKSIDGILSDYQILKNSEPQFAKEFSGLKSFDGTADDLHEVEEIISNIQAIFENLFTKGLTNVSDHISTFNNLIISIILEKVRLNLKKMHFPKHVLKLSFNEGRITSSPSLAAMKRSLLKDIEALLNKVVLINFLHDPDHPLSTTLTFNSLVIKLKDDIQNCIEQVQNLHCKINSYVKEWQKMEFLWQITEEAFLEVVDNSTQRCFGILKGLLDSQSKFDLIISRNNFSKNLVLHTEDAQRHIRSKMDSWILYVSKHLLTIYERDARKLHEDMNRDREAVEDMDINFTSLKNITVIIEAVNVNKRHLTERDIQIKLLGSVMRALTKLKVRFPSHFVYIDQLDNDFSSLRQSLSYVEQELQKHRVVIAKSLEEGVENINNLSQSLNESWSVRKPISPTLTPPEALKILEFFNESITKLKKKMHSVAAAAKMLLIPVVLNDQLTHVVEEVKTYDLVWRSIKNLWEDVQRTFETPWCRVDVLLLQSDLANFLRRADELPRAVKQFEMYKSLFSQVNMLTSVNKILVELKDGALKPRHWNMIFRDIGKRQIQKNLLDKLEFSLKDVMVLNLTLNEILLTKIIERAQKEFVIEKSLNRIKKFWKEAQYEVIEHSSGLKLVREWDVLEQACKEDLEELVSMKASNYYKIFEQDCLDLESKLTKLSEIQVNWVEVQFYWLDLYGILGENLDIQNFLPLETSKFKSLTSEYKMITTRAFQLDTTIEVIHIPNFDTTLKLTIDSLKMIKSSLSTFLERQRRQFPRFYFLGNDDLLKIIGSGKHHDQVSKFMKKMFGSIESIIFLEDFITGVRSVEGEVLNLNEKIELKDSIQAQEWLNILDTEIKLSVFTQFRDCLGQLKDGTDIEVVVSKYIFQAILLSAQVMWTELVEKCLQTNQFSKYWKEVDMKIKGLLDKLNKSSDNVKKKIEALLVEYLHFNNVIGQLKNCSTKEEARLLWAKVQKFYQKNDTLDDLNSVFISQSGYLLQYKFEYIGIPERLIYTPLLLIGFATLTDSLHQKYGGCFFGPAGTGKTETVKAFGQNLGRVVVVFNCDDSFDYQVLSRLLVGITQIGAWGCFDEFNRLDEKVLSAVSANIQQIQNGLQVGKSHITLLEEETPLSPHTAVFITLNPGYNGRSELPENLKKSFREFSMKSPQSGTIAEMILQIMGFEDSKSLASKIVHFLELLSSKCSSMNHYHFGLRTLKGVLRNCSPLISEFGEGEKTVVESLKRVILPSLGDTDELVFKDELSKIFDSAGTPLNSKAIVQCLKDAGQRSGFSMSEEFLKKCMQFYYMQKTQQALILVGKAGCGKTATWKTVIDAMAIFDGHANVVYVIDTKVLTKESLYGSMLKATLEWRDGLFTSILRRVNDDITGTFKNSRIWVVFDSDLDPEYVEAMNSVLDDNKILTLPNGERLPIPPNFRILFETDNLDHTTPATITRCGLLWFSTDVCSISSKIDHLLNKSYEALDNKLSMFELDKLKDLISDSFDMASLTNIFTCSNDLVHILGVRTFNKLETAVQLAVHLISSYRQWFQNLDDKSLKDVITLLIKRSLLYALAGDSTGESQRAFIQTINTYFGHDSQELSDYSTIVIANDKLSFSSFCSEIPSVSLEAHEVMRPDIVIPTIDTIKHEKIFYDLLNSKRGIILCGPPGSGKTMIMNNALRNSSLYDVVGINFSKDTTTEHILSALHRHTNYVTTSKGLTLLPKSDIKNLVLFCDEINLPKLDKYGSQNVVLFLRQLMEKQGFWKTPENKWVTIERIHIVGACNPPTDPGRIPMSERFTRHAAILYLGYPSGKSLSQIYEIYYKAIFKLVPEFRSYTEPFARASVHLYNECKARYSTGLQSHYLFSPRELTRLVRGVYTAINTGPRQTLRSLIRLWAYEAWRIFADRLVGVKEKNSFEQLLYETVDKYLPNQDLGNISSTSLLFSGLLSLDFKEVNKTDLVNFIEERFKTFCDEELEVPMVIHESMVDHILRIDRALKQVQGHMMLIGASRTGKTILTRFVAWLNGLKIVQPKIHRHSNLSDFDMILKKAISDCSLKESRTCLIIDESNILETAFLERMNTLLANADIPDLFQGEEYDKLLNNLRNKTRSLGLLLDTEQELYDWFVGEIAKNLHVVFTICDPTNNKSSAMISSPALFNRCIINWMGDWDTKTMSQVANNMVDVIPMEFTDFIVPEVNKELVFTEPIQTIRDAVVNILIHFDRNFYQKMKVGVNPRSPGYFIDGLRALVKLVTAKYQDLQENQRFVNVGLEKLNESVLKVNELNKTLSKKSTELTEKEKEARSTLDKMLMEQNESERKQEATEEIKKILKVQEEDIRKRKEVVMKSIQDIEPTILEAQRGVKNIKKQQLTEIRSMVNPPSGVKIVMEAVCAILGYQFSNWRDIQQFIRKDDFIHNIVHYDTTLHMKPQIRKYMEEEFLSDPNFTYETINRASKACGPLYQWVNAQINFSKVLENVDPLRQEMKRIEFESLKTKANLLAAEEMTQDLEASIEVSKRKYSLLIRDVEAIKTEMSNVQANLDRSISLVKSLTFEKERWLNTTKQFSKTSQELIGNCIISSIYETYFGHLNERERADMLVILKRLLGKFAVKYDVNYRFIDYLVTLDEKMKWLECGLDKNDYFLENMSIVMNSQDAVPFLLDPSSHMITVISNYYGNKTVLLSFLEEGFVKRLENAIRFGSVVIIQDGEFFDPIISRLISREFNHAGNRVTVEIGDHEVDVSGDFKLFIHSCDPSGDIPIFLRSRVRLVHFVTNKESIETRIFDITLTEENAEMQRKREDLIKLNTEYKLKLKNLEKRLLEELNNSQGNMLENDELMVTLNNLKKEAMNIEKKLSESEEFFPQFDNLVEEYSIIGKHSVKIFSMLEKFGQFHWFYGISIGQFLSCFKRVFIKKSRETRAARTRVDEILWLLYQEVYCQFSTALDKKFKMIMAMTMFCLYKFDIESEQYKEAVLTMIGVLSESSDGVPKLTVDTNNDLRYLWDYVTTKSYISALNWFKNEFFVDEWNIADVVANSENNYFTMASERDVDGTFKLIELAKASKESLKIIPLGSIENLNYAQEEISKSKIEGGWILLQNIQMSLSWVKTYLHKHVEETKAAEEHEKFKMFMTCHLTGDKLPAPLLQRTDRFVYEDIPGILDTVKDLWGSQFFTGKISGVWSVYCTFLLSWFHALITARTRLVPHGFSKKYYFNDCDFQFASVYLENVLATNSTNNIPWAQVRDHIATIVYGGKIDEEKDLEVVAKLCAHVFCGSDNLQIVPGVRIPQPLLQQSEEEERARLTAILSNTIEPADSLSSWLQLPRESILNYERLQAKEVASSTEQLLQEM

B1: Lis1 (S. cerevisiae Pac1) (natural protein)
chain: MTNWQQQLPLTDTQKNELDKSVLRYLNWNYKQTVRHEHAQDYESVRHAIVTLSGFLLQESVDRQEFISNNDTSNESMVDIDELLLPKKWNSIVRLQKKIIELEQNTETLVSQIKDLNTQVSELAQFKPTTSNGTSAHNVLKWIPRNLPSCLINVESSVTSVKLHPNLPIVFVATDHGKLYAFDLFNYTIPLASLQSHTKAITSMDVLFTNYTNSSKKNYLVIVTASKDLQIHVFKWVSEECKFQQIRSLLGHEHIVSAVKIWQKNNDVHIASCSRDQTVKIWDFHNGWSLKTFQPHSQWVRSIDVLGDYIISGSHDTTLRLTHWPSGNGLSVGTGHEFPIEKVKFIHFIEDSPEIRFRTPSTDRYKNWGMQYCVSASRDRTIKIWEIPLPTLMAHRAPIPNPTDSNFRCVLTLKGHLSWVRDISIRGQYLFSCADDKSVRCWDLNTGQCLHVWEKLHTGFVNCLDLDVDFDSNVTPRQMMVTGGLDCKSNVFMR
- K1/2: Lis1 concentration for half-maximal reduction of single-molecule GST-dynein (331 kDa) velocity [1]: 15.3 nM
- K1/2: Lis1 concentration for half-maximal velocity reduction (experiment with the AAA4 mutants) [2]: 15.7 nM
